Here are results for four molecules from patent US20170101454A1 (Novo Nordisk, published 2017).

Starred links: 1 amine or outer side, 2 acyl side, 3 side chain; linkers in the order of their positions; H or OH if unused. Non-standard residues stand in square brackets, D forms with d. Groups on a side chain read outwards from the residue. No end group written: not given here. *: point of attachment. C18 diacid = O=C(O)CCCCCCCCCCCCCCCCC(=O)*; γGlu = O=C(O)[C@H](CCC(=O)[*:2])N[*:1]; AEEA = NCCOCCOCC(=O)O; Aib = CC(C)(N)C(=O)O

First the molecules themselves.
B1: N^ε29-[(4S)-4-carboxy-4-[[(4S)-4-carboxy-4-[[2-[2-[2-[[2-[2-[2-[[(4S)-4-carboxy-4-(17-carboxyheptadecanoylamino)butanoyl]amino]ethoxy]ethoxy]acetyl]amino]ethoxy … (peptide)
chain: H[Aib]QGTFTSDLSKYLDLRRARDFVAWLINK([γGlu-γGlu-AEEA-AEEA-γGlu-C18 diacid])-NH2
modifications: N-terminus assumed
SMILES: CC[C@H](C)[C@H](NC(=O)[C@H](CC(C)C)NC(=O)[C@H](Cc1c[nH]c2ccccc12)NC(=O)[C@H](C)NC(=O)[C@@H](NC(=O)[C@H](Cc1ccccc1)NC(=O)[C@H](CC(=O)O)NC(=O)[C@H](CCCNC(=N)N)NC(=O)[C@H](C)NC(=O)[C@H](CCCNC(=N)N)NC(=O)[C@H](CCCNC(=N)N)NC(=O)[C@H](CC(C)C)NC(=O)[C@H](CC(=O)O)NC(=O)[C@H](CC(C)C)NC(=O)[C@H](Cc1ccc(O)cc1)NC(=O)[C@H](CCCCN)NC(=O)[C@H](CO)NC(=O)[C@H](CC(C)C)NC(=O)[C@H](CC(=O)O)NC(=O)[C@H](CO)NC(=O)[C@@H](NC(=O)[C@H](Cc1ccccc1)NC(=O)[C@@H](NC(=O)CNC(=O)[C@H](CCC(N)=O)NC(=O)C(C)(C)NC(=O)[C@@H](N)Cc1c[nH]cn1)[C@@H](C)O)[C@@H](C)O)C(C)C)C(=O)N[C@@H](CC(N)=O)C(=O)N[C@@H](CCCCNC(=O)CC[C@H](NC(=O)CC[C@H](NC(=O)COCCOCCNC(=O)COCCOCCNC(=O)CC[C@H](NC(=O)CCCCCCCCCCCCCCCCC(=O)O)C(=O)O)C(=O)O)C(=O)O)C(N)=O
B2: N^ε29-[(4S)-4-carboxy-4-[[(4S)-4-carboxy-4-[[2-[2-[2-[[2-[2-[2-[[(4S)-4-carboxy-4-(17-carboxyheptadecanoylamino)butanoyl]amino]ethoxy]ethoxy]acetyl]amino]ethoxy … (peptide)
peptide: H[Aib]QGTFTSDLSKYLDARRAREFVQWLINK([γGlu-γGlu-AEEA-AEEA-γGlu-C18 diacid])-NH2
modifications: N-terminus assumed
SMILES: CC[C@H](C)[C@H](NC(=O)[C@H](CC(C)C)NC(=O)[C@H](Cc1c[nH]c2ccccc12)NC(=O)[C@H](CCC(N)=O)NC(=O)[C@@H](NC(=O)[C@H](Cc1ccccc1)NC(=O)[C@H](CCC(=O)O)NC(=O)[C@H](CCCNC(=N)N)NC(=O)[C@H](C)NC(=O)[C@H](CCCNC(=N)N)NC(=O)[C@H](CCCNC(=N)N)NC(=O)[C@H](C)NC(=O)[C@H](CC(=O)O)NC(=O)[C@H](CC(C)C)NC(=O)[C@H](Cc1ccc(O)cc1)NC(=O)[C@H](CCCCN)NC(=O)[C@H](CO)NC(=O)[C@H](CC(C)C)NC(=O)[C@H](CC(=O)O)NC(=O)[C@H](CO)NC(=O)[C@@H](NC(=O)[C@H](Cc1ccccc1)NC(=O)[C@@H](NC(=O)CNC(=O)[C@H](CCC(N)=O)NC(=O)C(C)(C)NC(=O)[C@@H](N)Cc1c[nH]cn1)[C@@H](C)O)[C@@H](C)O)C(C)C)C(=O)N[C@@H](CC(N)=O)C(=O)N[C@@H](CCCCNC(=O)CC[C@H](NC(=O)CC[C@H](NC(=O)COCCOCCNC(=O)COCCOCCNC(=O)CC[C@H](NC(=O)CCCCCCCCCCCCCCCCC(=O)O)C(=O)O)C(=O)O)C(=O)O)C(N)=O
notes: also called Chem. 21; Chem 21
B3: N^ε29-[(4S)-4-carboxy-4-[[(4S)-4-carboxy-4-[[2-[2-[2-[[2-[2-[2-[[(4S)-4-carboxy-4-(17-carboxyheptadecanoylamino)butanoyl]amino]ethoxy]ethoxy]acetyl]amino]ethoxy … (peptide)
peptide: H[Aib]QGTFTSDLSKYLDARRAREFVQWLISK([γGlu-γGlu-AEEA-AEEA-γGlu-C18 diacid])-NH2
modifications: N-terminus assumed
SMILES: CC[C@H](C)[C@H](NC(=O)[C@H](CC(C)C)NC(=O)[C@H](Cc1c[nH]c2ccccc12)NC(=O)[C@H](CCC(N)=O)NC(=O)[C@@H](NC(=O)[C@H](Cc1ccccc1)NC(=O)[C@H](CCC(=O)O)NC(=O)[C@H](CCCNC(=N)N)NC(=O)[C@H](C)NC(=O)[C@H](CCCNC(=N)N)NC(=O)[C@H](CCCNC(=N)N)NC(=O)[C@H](C)NC(=O)[C@H](CC(=O)O)NC(=O)[C@H](CC(C)C)NC(=O)[C@H](Cc1ccc(O)cc1)NC(=O)[C@H](CCCCN)NC(=O)[C@H](CO)NC(=O)[C@H](CC(C)C)NC(=O)[C@H](CC(=O)O)NC(=O)[C@H](CO)NC(=O)[C@@H](NC(=O)[C@H](Cc1ccccc1)NC(=O)[C@@H](NC(=O)CNC(=O)[C@H](CCC(N)=O)NC(=O)C(C)(C)NC(=O)[C@@H](N)Cc1c[nH]cn1)[C@@H](C)O)[C@@H](C)O)C(C)C)C(=O)N[C@@H](CO)C(=O)N[C@@H](CCCCNC(=O)CC[C@H](NC(=O)CC[C@H](NC(=O)COCCOCCNC(=O)COCCOCCNC(=O)CC[C@H](NC(=O)CCCCCCCCCCCCCCCCC(=O)O)C(=O)O)C(=O)O)C(=O)O)C(N)=O
notes: also called Chem. 28; Chem 28
B4: N^ε29-[(4S)-4-carboxy-4-[[(4S)-4-carboxy-4-[[2-[2-[2-[[2-[2-[2-[[(4S)-4-carboxy-4-(17-carboxyheptadecanoylamino)butanoyl]amino]ethoxy]ethoxy]acetyl]amino]ethoxy … (peptide)
peptide: H[Aib]QGTFTSDLSKYLDARRARDFVQWLISK([γGlu-γGlu-AEEA-AEEA-γGlu-C18 diacid])-NH2
modifications: N-terminus assumed
SMILES: CC[C@H](C)[C@H](NC(=O)[C@H](CC(C)C)NC(=O)[C@H](Cc1c[nH]c2ccccc12)NC(=O)[C@H](CCC(N)=O)NC(=O)[C@@H](NC(=O)[C@H](Cc1ccccc1)NC(=O)[C@H](CC(=O)O)NC(=O)[C@H](CCCNC(=N)N)NC(=O)[C@H](C)NC(=O)[C@H](CCCNC(=N)N)NC(=O)[C@H](CCCNC(=N)N)NC(=O)[C@H](C)NC(=O)[C@H](CC(=O)O)NC(=O)[C@H](CC(C)C)NC(=O)[C@H](Cc1ccc(O)cc1)NC(=O)[C@H](CCCCN)NC(=O)[C@H](CO)NC(=O)[C@H](CC(C)C)NC(=O)[C@H](CC(=O)O)NC(=O)[C@H](CO)NC(=O)[C@@H](NC(=O)[C@H](Cc1ccccc1)NC(=O)[C@@H](NC(=O)CNC(=O)[C@H](CCC(N)=O)NC(=O)C(C)(C)NC(=O)[C@@H](N)Cc1c[nH]cn1)[C@@H](C)O)[C@@H](C)O)C(C)C)C(=O)N[C@@H](CO)C(=O)N[C@@H](CCCCNC(=O)CC[C@H](NC(=O)CC[C@H](NC(=O)COCCOCCNC(=O)COCCOCCNC(=O)CC[C@H](NC(=O)CCCCCCCCCCCCCCCCC(=O)O)C(=O)O)C(=O)O)C(=O)O)C(N)=O
notes: also called Chem. 27; Chem 27

T2 sequence (P47871 26-477): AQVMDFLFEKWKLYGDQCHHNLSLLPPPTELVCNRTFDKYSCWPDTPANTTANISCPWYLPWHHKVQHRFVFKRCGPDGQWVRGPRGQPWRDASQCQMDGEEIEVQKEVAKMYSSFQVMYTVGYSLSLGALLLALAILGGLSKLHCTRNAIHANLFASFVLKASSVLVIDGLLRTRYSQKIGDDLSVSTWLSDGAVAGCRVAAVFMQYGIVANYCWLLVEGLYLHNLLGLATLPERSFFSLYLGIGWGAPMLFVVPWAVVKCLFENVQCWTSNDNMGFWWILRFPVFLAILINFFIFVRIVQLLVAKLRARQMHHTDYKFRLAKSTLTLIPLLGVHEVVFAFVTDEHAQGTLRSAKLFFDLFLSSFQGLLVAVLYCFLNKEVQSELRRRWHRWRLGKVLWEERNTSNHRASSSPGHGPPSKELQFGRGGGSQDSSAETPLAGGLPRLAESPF

For one assay, the target named is T1, human GLP-1 receptor (human, UniProt P43220 24-463). As to the kind of experiment: cell-based or functional assay.
With B1, the “GLP-1R EC50 (pM) [Assay (I)(a)], CRE luciferase reporter, BHK cells” value (shortened to “GLP-1R EC50 (pM) [Assay (I)(a)]”) is 3 pM.
Take B2: the “GLP-1R EC50 (pM) [Assay (I)(a)]” value was 3 pM.
As to B3, the “GLP-1R EC50 (pM) [Assay (I)(a)]” value came to 3 pM.
The same measure, in the same setting: the value for B4 was 3 pM.

The next assay addresses T2, human glucagon receptor (human, UniProt P47871 26-477). Briefly: cell-based or functional assay.
On to B1, for which the “GlucagonR EC50 (pM), [Assay (I)(b)], CRE luciferase reporter, BHK cells” value is 55 pM.
As to B2, the “GlucagonR EC50 (pM), [Assay (I)(b)], CRE luciferase reporter, BHK cells” value worked out at 31 pM.
Still for that read-out and setting: as for B3, the figure is 36 pM.
On the same count and under the same terms, the value for B4 was 66 pM.

The target of a further assay is T1, human GLP-1 receptor. Briefly: displacement of [125I]-GLP-1-(7-36)NH2 from BHK membranes with human GLP-1R, SPA, no serum albumin. Background: Displacement assays read how much labelled ligand stays bound in the presence of the test substance.
In the case of B1, the 50% inhibitory concentration (IC50) – broadly, the concentration that gives 50% inhibition – amounted to 0.4 nM.
In turn, B2 yielded a half-maximal inhibitory concentration (IC50) of 0.1 nM.
B3 came in with an IC50 of 0.2 nM.
Still for that read-out and setting: as for B4, the figure is 0.2 nM.

Another assay addresses T2, human glucagon receptor. Briefly: displacement of [125I]-glucagon from BHK membranes with human glucagon receptor, SPA, no serum albumin.
B1: the IC50 worked out at 14 nM.
Turning to B2, the IC50 is 8.7 nM.
B3 gave an IC50 of 8.6 nM.
The same measure, in the same setting: as for B4, the figure is 19.1 nM.
